{"source": "patent US20240228579A1", "about": "(Innovent, published 2024)", "data": [{"target": "T1, human C1q (human, UniProt P02745 23-245; P02746 28-253; P02747 29-245)", "T1 construct": "Bought C1q (Complement Technology); also called C1q antigen", "T1 sequence (P02745 23-245 limits assumed, chain 1 of 3)": "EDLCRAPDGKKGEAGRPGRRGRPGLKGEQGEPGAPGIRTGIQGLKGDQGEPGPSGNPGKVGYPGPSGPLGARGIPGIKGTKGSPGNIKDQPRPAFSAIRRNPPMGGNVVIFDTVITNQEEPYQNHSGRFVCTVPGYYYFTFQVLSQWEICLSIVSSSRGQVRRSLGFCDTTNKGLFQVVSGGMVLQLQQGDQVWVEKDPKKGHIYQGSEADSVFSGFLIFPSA", "T1 sequence (P02746 28-253 limits assumed, chain 2 of 3)": "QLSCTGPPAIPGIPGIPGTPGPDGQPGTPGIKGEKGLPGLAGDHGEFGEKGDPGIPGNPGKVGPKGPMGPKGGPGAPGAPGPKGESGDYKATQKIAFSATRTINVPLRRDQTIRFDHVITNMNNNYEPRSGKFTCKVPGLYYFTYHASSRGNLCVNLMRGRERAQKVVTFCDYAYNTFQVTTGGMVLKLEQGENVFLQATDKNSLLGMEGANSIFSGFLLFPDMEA", "T1 sequence (P02747 29-245 limits assumed, chain 3 of 3)": "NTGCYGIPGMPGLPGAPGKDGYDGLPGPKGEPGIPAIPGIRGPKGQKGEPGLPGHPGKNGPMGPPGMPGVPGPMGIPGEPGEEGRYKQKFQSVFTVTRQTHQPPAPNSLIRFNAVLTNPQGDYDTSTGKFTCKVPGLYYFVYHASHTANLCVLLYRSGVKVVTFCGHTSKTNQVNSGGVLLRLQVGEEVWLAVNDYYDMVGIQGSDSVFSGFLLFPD", "assay": "BLI (Octet), biotinylated antibody on SA sensor", "protocol": "The antibody was diluted to approximately 100 nM, and C1q (Δ099, Complement Technology) was diluted to 40 nM.\nDetection was conducted using Fortebio Octet Red96e, and the sensors were arranged according to the positions of the samples. […] After the experiment was completed, KD values were analyzed using ForteBio Octet analysis software, the coordinate axis data were derived, and Graphpad Prism 8 software was used for plotting.", "values": [{"binder": "Fcmut-18 (antibody, human IgG4 S228P, kappa, IgG4-mut: deletion of 329 (EU index)) heavy: QVQLVQSGAEVKKPGSSVKVSCKASGYSFSSYNIHWVRQAPGQGLEWMGYIAPFQGDSRYNQKFKGRVTITADKSTSTAYMELSSLRSEDTAVYYCARLNRGNSLDYWGQGTLVTVSSASTKGPSVFPLAPCSRSTSESTAALGCLVKDYFPEPVTVSWNSGALTSGVHTFPAVLQSSGLYSLSSVVTVPSSSLGTKTYTCNVDHKPSNTKVDKRVESKYGPPCPPCPAPEFLGGPSVFLFPPKPKDTLMISRTPEVTCVVVDVSQEDPEVQFNWYVDGVEVHNAKTKPREEQFNSTYRVVSVLTVLHQDWLNGKEYKCKVSNKGLSSIEKTISKAKGQPREPQVYTLPPSQEEMTKNQVSLTCLVKGFYPSDIAVEWESNGQPENNYKTTPPVLDSDGSFFLYSRLTVDKSRWQEGNVFSCSVMHEALHNHYTQKSLSLSLGK light: not shown", "binding result": "no binding (tested: C1q 40 nM)"}, {"binder": "Fcmut-19 (antibody, human IgG4 S228P, kappa, IgG4-mut: deletion of 329, G at 330 (EU index)) heavy: QVQLVQSGAEVKKPGSSVKVSCKASGYSFSSYNIHWVRQAPGQGLEWMGYIAPFQGDSRYNQKFKGRVTITADKSTSTAYMELSSLRSEDTAVYYCARLNRGNSLDYWGQGTLVTVSSASTKGPSVFPLAPCSRSTSESTAALGCLVKDYFPEPVTVSWNSGALTSGVHTFPAVLQSSGLYSLSSVVTVPSSSLGTKTYTCNVDHKPSNTKVDKRVESKYGPPCPPCPAPEFLGGPSVFLFPPKPKDTLMISRTPEVTCVVVDVSQEDPEVQFNWYVDGVEVHNAKTKPREEQFNSTYRVVSVLTVLHQDWLNGKEYKCKVSNKGLGSIEKTISKAKGQPREPQVYTLPPSQEEMTKNQVSLTCLVKGFYPSDIAVEWESNGQPENNYKTTPPVLDSDGSFFLYSRLTVDKSRWQEGNVFSCSVMHEALHNHYTQKSLSLSLGK light: not shown", "binding result": "no binding (tested: C1q 40 nM)"}, {"binder": "Fcmut-23 (antibody, human IgG4 S228P, kappa, F234A L235A) heavy: QVQLVQSGAEVKKPGSSVKVSCKASGYSFSSYNIHWVRQAPGQGLEWMGYIAPFQGDSRYNQKFKGRVTITADKSTSTAYMELSSLRSEDTAVYYCARLNRGNSLDYWGQGTLVTVSSASTKGPSVFPLAPCSRSTSESTAALGCLVKDYFPEPVTVSWNSGALTSGVHTFPAVLQSSGLYSLSSVVTVPSSSLGTKTYTCNVDHKPSNTKVDKRVESKYGPPCPPCPAPEAAGGPSVFLFPPKPKDTLMISRTPEVTCVVVDVSQEDPEVQFNWYVDGVEVHNAKTKPREEQFNSTYRVVSVLTVLHQDWLNGKEYKCKVSNKGLGSIEKTISKAKGQPREPQVYTLPPSQEEMTKNQVSLTCLVKGFYPSDIAVEWESNGQPENNYKTTPPVLDSDGSFFLYSRLTVDKSRWQEGNVFSCSVMHEALHNHYTQKSLSLSLGK light: not shown", "binding result": "no binding (tested: C1q 40 nM)"}, {"binder": "Fcmut-22 (antibody, human IgG4 S228P, kappa, F234A L235A) heavy: QVQLVQSGAEVKKPGSSVKVSCKASGYSFSSYNIHWVRQAPGQGLEWMGYIAPFQGDSRYNQKFKGRVTITADKSTSTAYMELSSLRSEDTAVYYCARLNRGNSLDYWGQGTLVTVSSASTKGPSVFPLAPCSRSTSESTAALGCLVKDYFPEPVTVSWNSGALTSGVHTFPAVLQSSGLYSLSSVVTVPSSSLGTKTYTCNVDHKPSNTKVDKRVESKYGPPCPPCPAPEAAGGPSVFLFPPKPKDTLMISRTPEVTCVVVDVSQEDPEVQFNWYVDGVEVHNAKTKPREEQFNSTYRVVSVLTVLHQDWLNGKEYKCKVSNKGLSSIEKTISKAKGQPREPQVYTLPPSQEEMTKNQVSLTCLVKGFYPSDIAVEWESNGQPENNYKTTPPVLDSDGSFFLYSRLTVDKSRWQEGNVFSCSVMHEALHNHYTQKSLSLSLGK light: not shown", "binding result": "no binding (tested: C1q 40 nM)"}, {"binder": "Fcmut-12 (antibody, human IgG2, kappa, IgG2-mut: deletion of 329 and 330 (EU index)) heavy: QVQLVQSGAEVKKPGSSVKVSCKASGYSFSSYNIHWVRQAPGQGLEWMGYIAPFQGDSRYNQKFKGRVTITADKSTSTAYMELSSLRSEDTAVYYCARLNRGNSLDYWGQGTLVTVSSASTKGPSVFPLAPCSRSTSESTAALGCLVKDYFPEPVTVSWNSGALTSGVHTFPAVLQSSGLYSLSSVVTVPSSNFGTQTYTCNVDHKPSNTKVDKTVERKCCVECPPCPAPPVAGPSVFLFPPKPKDTLMISRTPEVTCVVVDVSHEDPEVQFNWYVDGVEVHNAKTKPREEQFNSTFRVVSVLTVVHQDWLNGKEYKCKVSNKGLPIEKTISKTKGQPREPQVYTLPPSREEMTKNQVSLTCLVKGFYPSDISVEWESNGQPENNYKTTPPMLDSDGSFFLYSKLTVDKSRWQQGNVFSCSVMHEALHNHYTQKSLSLSPGK light: not shown", "binding result": "no binding (tested: C1q 40 nM)"}, {"binder": "Fcmut-16 (antibody, human IgG2, kappa, IgG2-mut: A at 234, deletion of 329 and 330 (EU index)) heavy: QVQLVQSGAEVKKPGSSVKVSCKASGYSFSSYNIHWVRQAPGQGLEWMGYIAPFQGDSRYNQKFKGRVTITADKSTSTAYMELSSLRSEDTAVYYCARLNRGNSLDYWGQGTLVTVSSASTKGPSVFPLAPCSRSTSESTAALGCLVKDYFPEPVTVSWNSGALTSGVHTFPAVLQSSGLYSLSSVVTVPSSNFGTQTYTCNVDHKPSNTKVDKTVERKCCVECPPCPAPPAAGPSVFLFPPKPKDTLMISRTPEVTCVVVDVSHEDPEVQFNWYVDGVEVHNAKTKPREEQFNSTFRVVSVLTVVHQDWLNGKEYKCKVSNKGLPIEKTISKTKGQPREPQVYTLPPSREEMTKNQVSLTCLVKGFYPSDISVEWESNGQPENNYKTTPPMLDSDGSFFLYSKLTVDKSRWQQGNVFSCSVMHEALHNHYTQKSLSLSPGK light: not shown", "binding result": "no binding (tested: C1q 40 nM)"}, {"binder": "Fcmut-13 (antibody, human IgG2, kappa, IgG2-mut: A at 234 (EU index)) heavy: QVQLVQSGAEVKKPGSSVKVSCKASGYSFSSYNIHWVRQAPGQGLEWMGYIAPFQGDSRYNQKFKGRVTITADKSTSTAYMELSSLRSEDTAVYYCARLNRGNSLDYWGQGTLVTVSSASTKGPSVFPLAPCSRSTSESTAALGCLVKDYFPEPVTVSWNSGALTSGVHTFPAVLQSSGLYSLSSVVTVPSSNFGTQTYTCNVDHKPSNTKVDKTVERKCCVECPPCPAPPAAGPSVFLFPPKPKDTLMISRTPEVTCVVVDVSHEDPEVQFNWYVDGVEVHNAKTKPREEQFNSTFRVVSVLTVVHQDWLNGKEYKCKVSNKGLPAPIEKTISKTKGQPREPQVYTLPPSREEMTKNQVSLTCLVKGFYPSDISVEWESNGQPENNYKTTPPMLDSDGSFFLYSKLTVDKSRWQQGNVFSCSVMHEALHNHYTQKSLSLSPGK light: not shown", "binding result": "no binding (tested: C1q 40 nM)"}, {"binder": "Fcmut-10 (antibody, human IgG2, kappa, IgG2-mut: deletion of 329 (EU index); anti-claudin18.2 variable regions of Fcmut-01) heavy: QVQLVQSGAEVKKPGSSVKVSCKASGYSFSSYNIHWVRQAPGQGLEWMGYIAPFQGDSRYNQKFKGRVTITADKSTSTAYMELSSLRSEDTAVYYCARLNRGNSLDYWGQGTLVTVSSASTKGPSVFPLAPCSRSTSESTAALGCLVKDYFPEPVTVSWNSGALTSGVHTFPAVLQSSGLYSLSSVVTVPSSNFGTQTYTCNVDHKPSNTKVDKTVERKCCVECPPCPAPPVAGPSVFLFPPKPKDTLMISRTPEVTCVVVDVSHEDPEVQFNWYVDGVEVHNAKTKPREEQFNSTFRVVSVLTVVHQDWLNGKEYKCKVSNKGLAPIEKTISKTKGQPREPQVYTLPPSREEMTKNQVSLTCLVKGFYPSDISVEWESNGQPENNYKTTPPMLDSDGSFFLYSKLTVDKSRWQQGNVFSCSVMHEALHNHYTQKSLSLSPGK light: not shown", "binding result": "no binding (tested: C1q 40 nM)"}, {"binder": "Fcmut-15 (antibody, human IgG2, kappa, IgG2-mut: A at 234, deletion of 329, G at 330 (EU index)) heavy: QVQLVQSGAEVKKPGSSVKVSCKASGYSFSSYNIHWVRQAPGQGLEWMGYIAPFQGDSRYNQKFKGRVTITADKSTSTAYMELSSLRSEDTAVYYCARLNRGNSLDYWGQGTLVTVSSASTKGPSVFPLAPCSRSTSESTAALGCLVKDYFPEPVTVSWNSGALTSGVHTFPAVLQSSGLYSLSSVVTVPSSNFGTQTYTCNVDHKPSNTKVDKTVERKCCVECPPCPAPPAAGPSVFLFPPKPKDTLMISRTPEVTCVVVDVSHEDPEVQFNWYVDGVEVHNAKTKPREEQFNSTFRVVSVLTVVHQDWLNGKEYKCKVSNKGLGPIEKTISKTKGQPREPQVYTLPPSREEMTKNQVSLTCLVKGFYPSDISVEWESNGQPENNYKTTPPMLDSDGSFFLYSKLTVDKSRWQQGNVFSCSVMHEALHNHYTQKSLSLSPGK light: not shown", "binding result": "no binding (tested: C1q 40 nM)"}, {"binder": "Fcmut-14 (antibody, human IgG2, kappa, IgG2-mut: A at 234, deletion of 329 (EU index)) heavy: QVQLVQSGAEVKKPGSSVKVSCKASGYSFSSYNIHWVRQAPGQGLEWMGYIAPFQGDSRYNQKFKGRVTITADKSTSTAYMELSSLRSEDTAVYYCARLNRGNSLDYWGQGTLVTVSSASTKGPSVFPLAPCSRSTSESTAALGCLVKDYFPEPVTVSWNSGALTSGVHTFPAVLQSSGLYSLSSVVTVPSSNFGTQTYTCNVDHKPSNTKVDKTVERKCCVECPPCPAPPAAGPSVFLFPPKPKDTLMISRTPEVTCVVVDVSHEDPEVQFNWYVDGVEVHNAKTKPREEQFNSTFRVVSVLTVVHQDWLNGKEYKCKVSNKGLAPIEKTISKTKGQPREPQVYTLPPSREEMTKNQVSLTCLVKGFYPSDISVEWESNGQPENNYKTTPPMLDSDGSFFLYSKLTVDKSRWQQGNVFSCSVMHEALHNHYTQKSLSLSPGK light: not shown", "binding result": "no binding (tested: C1q 40 nM)"}, {"binder": "Fcmut-11 (antibody, human IgG2, kappa, IgG2-mut: deletion of 329, G at 330 (EU index)) heavy: QVQLVQSGAEVKKPGSSVKVSCKASGYSFSSYNIHWVRQAPGQGLEWMGYIAPFQGDSRYNQKFKGRVTITADKSTSTAYMELSSLRSEDTAVYYCARLNRGNSLDYWGQGTLVTVSSASTKGPSVFPLAPCSRSTSESTAALGCLVKDYFPEPVTVSWNSGALTSGVHTFPAVLQSSGLYSLSSVVTVPSSNFGTQTYTCNVDHKPSNTKVDKTVERKCCVECPPCPAPPVAGPSVFLFPPKPKDTLMISRTPEVTCVVVDVSHEDPEVQFNWYVDGVEVHNAKTKPREEQFNSTFRVVSVLTVVHQDWLNGKEYKCKVSNKGLGPIEKTISKTKGQPREPQVYTLPPSREEMTKNQVSLTCLVKGFYPSDISVEWESNGQPENNYKTTPPMLDSDGSFFLYSKLTVDKSRWQQGNVFSCSVMHEALHNHYTQKSLSLSPGK light: not shown", "binding result": "no binding (tested: C1q 40 nM)"}, {"binder": "Fcmut-20 (antibody, human IgG4 S228P, kappa, IgG4-mut: deletion of 329 and 330 (EU index)) heavy: QVQLVQSGAEVKKPGSSVKVSCKASGYSFSSYNIHWVRQAPGQGLEWMGYIAPFQGDSRYNQKFKGRVTITADKSTSTAYMELSSLRSEDTAVYYCARLNRGNSLDYWGQGTLVTVSSASTKGPSVFPLAPCSRSTSESTAALGCLVKDYFPEPVTVSWNSGALTSGVHTFPAVLQSSGLYSLSSVVTVPSSSLGTKTYTCNVDHKPSNTKVDKRVESKYGPPCPPCPAPEFLGGPSVFLFPPKPKDTLMISRTPEVTCVVVDVSQEDPEVQFNWYVDGVEVHNAKTKPREEQFNSTYRVVSVLTVLHQDWLNGKEYKCKVSNKGLSIEKTISKAKGQPREPQVYTLPPSQEEMTKNQVSLTCLVKGFYPSDIAVEWESNGQPENNYKTTPPVLDSDGSFFLYSRLTVDKSRWQEGNVFSCSVMHEALHNHYTQKSLSLSLGK light: not shown", "binding result": "no binding (tested: C1q 40 nM)"}]}]}
